Drawing on publication doi:10.1101/767376, “Strategies to improve scFvs as crystallization chaperones suggested by analysis of a complex with the human PHD-bromodomain SP140” (bioRxiv, 2019), this text covers Kd for one molecule.

As usually defined, the Kd is the concentration at which binding is half-saturated.

The assay concerns the target T1, SP140 PHD-bromodomain (construct SP140A-c055) (Homo sapiens, UniProt Q13342).
T1 construct: SP140, human, nuclear leukocyte-specific protein, amino acids 688-862 (PHD and bromodomain); Biotinylated recombinant SP140 was the target in the phage selection; Details are in supplementary methods S1; source: recombinant, purified
Nature of the assay: SPR; format and conditions in Supplementary Method S3 and Figure S1 (not shown). Background: In SPR one partner is held on a chip, and binding of the other changes the refractive index at the surface.

T1 sequence (Q13342 688-862): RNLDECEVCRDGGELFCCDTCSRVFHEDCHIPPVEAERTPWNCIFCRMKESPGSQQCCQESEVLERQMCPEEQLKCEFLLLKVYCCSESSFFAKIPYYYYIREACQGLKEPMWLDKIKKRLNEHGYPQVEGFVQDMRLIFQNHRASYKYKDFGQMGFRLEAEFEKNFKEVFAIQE

B1: G-SP140-8 scFv (construct YYSP140A-c009) (scFv, V domains shown)
VH: EVQLLESGGGLVQPGGSLRLSCAASGFTFYGSGMGWVRQAPGKGLEWVSSIYSGSGSTYYADSVKGRFTISRDNSKNTLYLQMNSLRAEDTAVYYCARTSIYYYYMDYWGQGTLVTVSS
VL: DIQMTQSPSSLSASVGDRVTITCRASQSISSYLNWYQQKPGKAPKLLIYAASSLQSGVPSRFSGSGSGTDFTLTISSLQPEDFATYYCQQSSSLFTFGQGTKLEIK
notes: scFv (VH and VL joined by a linker) selected by phage display from the human synthetic library SciLifeLib; see Supplementary Method S3; not shown: MBP, N-terminal, cleaved; His6, N-terminal, cleaved
With B1, the Kd is ~6 nM.
